Test results taken from US20070207463A1, “Method” (priority 2003, published 2007).

Columns and labels:
Format in all cases: biochemical, Pantoea dispersa SB1043
[1] = target: Pantoea dispersa AlbD variant AlbD-M1, Ser40Gly (A118G), FIG. 3 (Pantoea dispersa, UniProt O07822, S40G); experiment: Enzyme kinetics of AlbD-M1 with p-nitrophenyl compounds; conditions: PBS pH 7.4, room temperature, O.D405, means of triplicate
Description: (§1) Purification of AlbD and variants. The coding sequence of albD was amplified by PCR using forward primer 5′-[…]-3′ and reverse primer 5′-[…]-3′. The PCR product was digested by BamHI and EcoRI and fused in-frame to GST (glutathione S-transferase) gene in expression vector pGEX-2T (Pharmacia). E. coli DH5α containing the GST-AlbD fusion construct was grown in LB medium at 30° C. overnight. The cells were harvested by centrifuging at 5000 rpm for 10 minutes. The cells were resuspended in PBS buffer (pH7.4) and lysed by using a French Pressure Cell Press (Aim-Aminco) at 1100 psi. The lysate was centrifuged at 18000 rpm for 60 min at 4° C. The supernatant was loaded in the pre-equilibrated Gluthione Sepharose 4B affinity column and washed with PBS buffer (pH 7.4) to remove non-specifically bound proteins. […] The enzyme purity was determined using SDS-PAGE and stored at −80° C. in PBS buffer containing 50% glycerol. The AlbD variants were purified using the same method.
(§2) Kinetics analysis of wild type AlbD and its variants. Enzyme kinetics of AlbD and variants were determined using p-nitrophenyl compounds, the commonly used esterase substrates. The reaction was conducted in 165 μl PBS buffer (pH 7.4) containing enzyme (0.3-0.6 μM), and 3 mM p-nitrophenayl compounds at room temperature for 5 minutes and O.D405 was determined. For kinetics assay, we used the Kinetics program in the Athous spectrometer (Australia) to obtain slopes with different enzyme concentrations, and then calculated Km/Vmax and Kcat/Km by Lineweaver-Burk equation.

[2] = tested on: CC(=O)Oc1ccc([N+](=O)[O-])cc1; experiment: Enzyme kinetics of AlbD-M2 with p-nitrophenyl compounds; conditions: other: AlbD-M2, PBS pH 7.4, room temperature, O.D405, Lineweaver-Burk, means of triplicate
Description: as §1, §2

[3] = tested on: CCCCCC(=O)Oc1ccc([N+](=O)[O-])cc1; experiment: as above; conditions: other: AlbD-M2, PBS pH 7.4, room temperature, O.D405, Lineweaver-Burk, means of triplicate
Description: as §1, §2

[4] = tested on: CCCC(=O)Oc1ccc([N+](=O)[O-])cc1; experiment: as above; conditions: other: AlbD-M2, PBS pH 7.4, room temperature, O.D405, Lineweaver-Burk, means of triplicate
Description: as §1, §2

[5] = tested on: CC(=O)Oc1ccc([N+](=O)[O-])cc1; experiment: Enzyme kinetics of AlbD-M1 with p-nitrophenyl compounds; conditions: other: AlbD-M1, PBS pH 7.4, room temperature, O.D405, Lineweaver-Burk, means of triplicate
Description: as §1, §2

[6] = tested on: CCCCCC(=O)Oc1ccc([N+](=O)[O-])cc1; experiment: as above; conditions: other: AlbD-M1, PBS pH 7.4, room temperature, O.D405, Lineweaver-Burk, means of triplicate
Description: as §1, §2

[7] = tested on: CCCCC(=O)Oc1ccc([N+](=O)[O-])cc1; experiment: as above; conditions: other: AlbD-M1, PBS pH 7.4, room temperature, O.D405, Lineweaver-Burk, means of triplicate
Description: as §1, §2

[8] = tested on: CCCC(=O)Oc1ccc([N+](=O)[O-])cc1; experiment: as above; conditions: other: AlbD-M1, PBS pH 7.4, room temperature, O.D405, Lineweaver-Burk, means of triplicate
Description: as §1, §2

[9] = target: Pantoea dispersa AlbD variant AlbD-M2, Glu25Arg (A74G)/Lys27Glu (A79G)/Ser40Gly (A118G) (Pantoea dispersa, UniProt O07822, K27E/Q25R/S40G); experiment: Enzyme kinetics of AlbD-M2 with p-nitrophenyl compounds; conditions: PBS pH 7.4, room temperature, O.D405, means of triplicate
Pantoea dispersa AlbD variant AlbD-M2, Glu25Arg (A74G)/Lys27Glu (A79G)/Ser40Gly (A118G), sequence (O07822 entry or part of it Q25R/K27E/S40G): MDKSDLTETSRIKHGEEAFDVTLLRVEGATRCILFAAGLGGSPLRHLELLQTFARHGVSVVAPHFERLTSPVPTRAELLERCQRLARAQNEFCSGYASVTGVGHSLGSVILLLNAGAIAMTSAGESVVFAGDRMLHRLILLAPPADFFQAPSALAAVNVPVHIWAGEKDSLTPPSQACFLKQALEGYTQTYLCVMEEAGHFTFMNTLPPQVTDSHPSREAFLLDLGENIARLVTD
Description: as §1, §2

[10] = target: Pantoea dispersa AlbD (albicidin detoxifying enzyme, carboxyl esterase), wild type (Pantoea dispersa, UniProt O07822); experiment: Enzyme kinetics of wild type AlbD with p-nitrophenyl compounds; conditions: PBS pH 7.4, room temperature, O.D405, means of triplicate
Pantoea dispersa AlbD (albicidin detoxifying enzyme, carboxyl esterase), wild type, sequence (O07822 entry or part of it): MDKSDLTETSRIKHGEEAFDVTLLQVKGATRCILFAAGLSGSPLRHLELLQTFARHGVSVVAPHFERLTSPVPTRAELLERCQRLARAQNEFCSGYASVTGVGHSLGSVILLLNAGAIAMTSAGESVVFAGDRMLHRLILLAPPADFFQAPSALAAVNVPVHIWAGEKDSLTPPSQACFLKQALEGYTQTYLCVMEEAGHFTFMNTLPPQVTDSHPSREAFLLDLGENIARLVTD
Description: as §1, §2

[11] = tested on: CC(=O)Oc1ccc([N+](=O)[O-])cc1; experiment: as above; conditions: other: wild type AlbD, PBS pH 7.4, room temperature, O.D405, Lineweaver-Burk, means of triplicate
Description: as §1, §2

[12] = tested on: CCCCCC(=O)Oc1ccc([N+](=O)[O-])cc1; experiment: as above; conditions: other: wild type AlbD, PBS pH 7.4, room temperature, O.D405, Lineweaver-Burk, means of triplicate
Description: as §1, §2

[13] = tested on: CCCCC(=O)Oc1ccc([N+](=O)[O-])cc1; experiment: as above; conditions: other: wild type AlbD, PBS pH 7.4, room temperature, O.D405, Lineweaver-Burk, means of triplicate
Description: as §1, §2

[14] = tested on: CCCC(=O)Oc1ccc([N+](=O)[O-])cc1; experiment: as above; conditions: other: wild type AlbD, PBS pH 7.4, room temperature, O.D405, Lineweaver-Burk, means of triplicate
Description: as §1, §2

Pantoea dispersa AlbD variant AlbD-M1, Ser40Gly (A118G), FIG. 3, sequence (O07822 entry or part of it S40G): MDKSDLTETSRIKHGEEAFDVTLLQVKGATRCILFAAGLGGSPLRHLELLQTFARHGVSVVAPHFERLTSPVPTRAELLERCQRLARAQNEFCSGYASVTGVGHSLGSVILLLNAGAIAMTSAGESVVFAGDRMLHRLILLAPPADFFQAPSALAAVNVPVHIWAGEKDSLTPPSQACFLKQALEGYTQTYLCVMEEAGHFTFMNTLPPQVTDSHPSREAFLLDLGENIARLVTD

CCCCC(=O)Oc1ccc([N+](=O)[O-])cc1 [p-nitrophenyl velerate, p-nitrophenyl valerate]
Kcat [1]: 8.8 × 10^−1 S^−1

Pantoea dispersa AlbD variant AlbD-M2, Glu25Arg (A74G)/Lys27Glu (A79G)/Ser40Gly (A118G) (Pantoea dispersa; K27E/Q25R/S40G)
Km [2]: 13000 µM
Km [3]: 66000 µM
Km [4]: 23 µM

Pantoea dispersa AlbD variant AlbD-M1, Ser40Gly (A118G), FIG. 3 (Pantoea dispersa; S40G)
Km [5]: 94000 µM
Km [6]: 250 µM
Km [7]: 400 µM
Km [8]: 11 µM

CCCC(=O)Oc1ccc([N+](=O)[O-])cc1 [p-nitrophenyl butyrate]
Kcat [1]: 2.5 × 10^−1 S^−1
Kcat [9]: 2.8 × 10^−2 S^−1

CCC(=O)Oc1ccc([N+](=O)[O-])cc1 [p-nitrophenol propionate, p-nitrophenyl propionate]
Kcat [1]: 2.7 × 10^−1 S^−1
Kcat [9]: 1.0 × 10^−1 S^−1
Kcat [10]: 8.3 × 10^−2 S^−1

CC(=O)Oc1ccc([N+](=O)[O-])cc1 [p-nitrophenol acetate, p-nitrophenyl acetate]
Kcat [1]: 9.1 × 10^−2 S^−1
Kcat [9]: 1.5 × 10^−2 S^−1
Kcat [10]: 3.8 × 10^−3 S^−1

Pantoea dispersa AlbD (albicidin detoxifying enzyme, carboxyl esterase), wild type (Pantoea dispersa)
Km [11]: 68000 µM
Km [12]: 2500 µM
kcat [12]: 0.11 s⁻¹
kcat/Km [12]: 55.6 M⁻¹ s⁻¹
Km [13]: 1700 µM
kcat [13]: 0.28 s⁻¹
kcat/Km [13]: 165 M⁻¹ s⁻¹
Km [14]: 190 µM
kcat [14]: 0.1 s⁻¹
kcat/Km [14]: 526 M⁻¹ s⁻¹

CCCCCC(=O)Oc1ccc([N+](=O)[O-])cc1 [p-nitrophenyl caproate]
Kcat [1]: 4.2 × 10^−1 S^−1
Kcat [9]: 1.3 × 10^−1 S^−1
